Results on one protein are retold here after publication PMC12694110, “A Multidrug and Toxic Compound Extrusion Transporter, RgMATE6, Facilitates Vacuolar Transport of Acteoside in Rehmannia glutinosa” (Plants, 2025).

Substrate in data set [1]: C[C@@H]1O[C@@H](O[C@@H]2[C@@H](O)[C@H](OCCc3ccc(O)c(O)c3)O[C@H](CO)[C@H]2OC(=O)/C=C/c2ccc(O)c(O)c2)[C@H](O)[C@H](O)[C@H]1O
Nature of the data set: uptake into vacuolar membrane vesicles, HPLC, Lineweaver-Burk. The data set is classed as biochemical, Rehmannia glutinosa. The settings on record: vesicles from transfected N. benthamiana protoplasts, 25 mM Tris-MES pH 8.0, 0.4 M sorbitol, 0.1% BSA, 25 °C, 20 min, substrate 20–120 μM.

Substrate in data set [2]: C[C@@H]1O[C@@H](O[C@@H]2[C@@H](O)[C@H](OCCc3ccc(O)c(O)c3)O[C@H](COC(=O)/C=C/c3ccc(O)c(O)c3)[C@H]2O)[C@H](O)[C@H](O)[C@H]1O
Described as above. The data set is classed as biochemical, Rehmannia glutinosa. The settings on record: vesicles from transfected N. benthamiana protoplasts, 25 mM Tris-MES pH 8.0, 0.4 M sorbitol, 0.1% BSA, 25 °C, 20 min, substrate 20–120 μM.

B1: RgMATE6 (Rehmannia glutinosa) (protein)
chain: MEDNSKQPLLSYEEEEEEDQVPDLVSVPSRFSFQRLSNFSFFSSFVADDEDIAPIETFSEFMSAFKDESGKLWFLAGPAIFTSLCQYSLGAFTQTFAGHVGTLELAAFSSVIAGLSLGVMLGMGSAVETLCGQAFGAGQHDMLGIYLQRSWIILLATGFILMFLYIFALPFLLVIGQTESISRVAGKLALWMIPQLFAYALNFPTAKFLQAQSKIMAMAWISAAGLGLHVLFSWLLMLKLGWGMAGGAAVLDGSWWFIVIAQLIYIFSGTCGKAWPGFSLRAFSNLWGFVRLSVASAVMMCLETWYFMALVLFAGYLKDAEVAVAALSVCTNILGWTNTIAVGFNAAISVRVSNELGASRPRTAKFSVVVMVISAFLIGLIVSILLLIFQDQYPSLFSDSLDVKQVVYELTPLLAFSIVVNSIQPALSGVAIGAGWQALIAYVNIVCYYVFGVPLGLILGYPLNMGVKGIWYGMVAGTVLQTLILFWIVYRTDWNKEASIAAKRIKYWRGEAEAAKSKGLGEIK
notes: full-length ORF (524 residues, 12 TM helices), C-terminal GFP fusion (pBI121-RgMATE6-GFP), transiently expressed in Nicotiana benthamiana mesophyll protoplasts; vacuolar membrane vesicles
Usually Km stands for the concentration of substrate that gives half-maximal velocity. As for B1, the results for the Km in data set [1] and in data set [2] were 35.59 µM and 121.98 µM, respectively.
